What was measured:
human IL-6 [1] = target: T1, human IL-6 (human, UniProt P05231 30-212); experiment: panning and screening on IL-6
T1 construct: the protein used was bought recombinant human IL-6 (R&D Systems), in part biotinylated; also called rhIL-6; hIL-6

human IL-6 [2] = target: T1, human IL-6; experiment: ELISA on IL-6 (also TF1 cell assay)

Binder	binding result (human IL-6 [1])	binding result (human IL-6 [2])
SEQ ID NO 715 (designed binder) CLADQFKCHNTNICIPGRLGCDGDPDCEDDSDEKGCPPHTCLPSQFQCGSGYCISQRWVCDGENDCEDSSDEANCAGSVPT	binds	
CEANELRCSSGRCLSVHWLCDGVDDCEDSSDEAGCPPRT (designed binder) [SEQ ID NO 600]	binds	
SEQ ID NO 743 (designed binder) CVPSQFQCRNNGICIPQNWHCDGVPDCEDSSDEESCGTTVHTCLPSQFQCGSGYCISQRWVCDGENDCEDSSDEANCAGSVPT	binds	
CLPSEFQCRDSKICLSADWLCDGVNDCVDGSDEAGCPPRT (designed binder) [SEQ ID NO 599]	binds	
SEQ ID NO 670 (designed binder) CPSNQFQCRNNGTCIPLPWLCDGVDDCGDDSDETSCTEPTCVPSQFQCGSGYCISQRWVCDGENDCEDSSDEANCAGSVPT	binds	
SEQ ID NO 784 (designed binder) CLSSQFQCDNGNCVPQQWVCDGDNDCLDDSDETSCSAPASEPPGSLCPASQFPCSSGHCVPLNWVCDGVNDCVDGSDEAGCPPRTCLPDQFQCGSGYCISQRWVCDGENDCEDSSDEANCAGSVPT	binds	
SEQ ID NO 669 (designed binder) CEASQFPCRNSERCVPPHLLCDGVNDCADGSDEIGCPPHTCVPSQFQCGSGYCISQRWVCDGENDCEDSSDEANCAGSVPT	binds	
SEQ ID NO 725 (designed binder) CLANEFRCSSGQCIPARWLCDGVNDCVDDSDEKDCPARTCLPSQFQCGSGYCISQRWVCDGENDCEDSSDEANCAGSVPT	binds	
SEQ ID NO 730 (designed binder) CAPSQFRCESGQCLPANWRCDGENDCQDGSDESPAICEGTAPTCLPSQFQCGSGYCISQRWVCDGENDCEDSSDEANCAGSVPT	binds	
SEQ ID NO 735 (designed binder) CAANEFRCRSTNTCIPQQWLCDGVNDCQDDSDEKSCRTPAPTCLPSQFQCGSGYCISQRWVCDGENDCEDSSDEANCAGSVPT	binds	
SEQ ID NO 764 (designed binder) CEAGEFRCRNGSCIPEAWGCDGVNDYLDNSDETNCPAHTCLSSEFQCGSGYCISQRWVCDGENDCEDSSDEANCAGSVPT	binds	
CLPSQFQCGSGYCISQRWVCDGEHDCEDSSDEANCAGSVPT (designed binder) [SEQ ID NO 538]	binds	
CLPSQFQCGSGWCISQRWVCDGENDCEDSSDEANCAGSVPT (designed binder) [SEQ ID NO 544]	binds	
SEQ ID NO 665 (designed binder) CRASQFQCGSGYCIPRPWLCDGVNDCEDGSDEADCQTRTCVPSQFQCGSGYCISQRWVCDGENDCEDSSDEANCAGSVPT	binds	
SEQ ID NO 925 (designed binder) CLPDQFRCGNGQCMPLDWVCDGVNDCPDDSDEEGCPPRTCEPGQFQCGSGYCISQRWVCDGENDCEDGSDEATCAGSVPQCPSDEFRCRTGRCIPQAWRCDGVNDCVDNSDEECCKEHT		binds
SEQ ID NO 758 (designed binder) CRPSQFQCQNSSRCIPLGWRCDGDNDCEDGSDEKDCTATARTCLPDQFQCGSGYCLPQAWVCDGENDCEDGSDETNCPART	binds	
SEQ ID NO 629 (designed binder) CLSSQFQCSNGNCIPAAWLCDSDNDCGDDSDETSCPAPTCPSSQFQCSSGWCIPEDWRCDGVPDCGDGSDEASDHCGDSHILPFSTPGPST	binds	
SEQ ID NO 635 (designed binder) CAPSQFTCGNGNCVPRPWLCDGDNDCEDDSDETSCPPHTCLPDQFQCGSGYCLPQAWVCDGENDCEDGSDETNCPART	binds	
SEQ ID NO 726 (designed binder) CLPGQFRCHSTDTCLPESWVCDGVNDCADDSDEASCPPHTCLPSQFQCGSGYCISQRWVCDGENDCEDSSDEANCAGSVPT	binds	
SEQ ID NO 681 (designed binder) CGSDEFLCNNGKCIPPTWGCDGVNDCQDNSDEAPALCPPPTCRSNQFQCGSGYCIPQRWVCDGVDDCEDSSDEKGCTPHT	binds	
CPSDEFTCDSGRCVSLNWLCDGVNDCGDNSDEAGCPTRT (designed binder) [SEQ ID NO 603]	binds	

Binder	binding result (human IL-6 [1])	binding result (human IL-6 [2])
SEQ ID NO 751 (designed binder) CLPSQFQCGSGYCISQRWVCDGENDCEDSSDEANCAGSVPTCLPSEFQCGNGRCLPLRLLCDGDDDCGDNSDEPLATCETSAPT	binds	
SEQ ID NO 714 (designed binder) CPPSQFTCSNGNCLSPTLLCDGVNDCVDDSDETSCAASVHTCLPSQFQCGSGYCISQRWVCDGENDCEDSSDEANCAGSVPT	binds	
SEQ ID NO 677 (designed binder) CRADQCQCNSGHCLSRNLRCDGEDDCADNSDEKSCSQDPEFHKVCLPDQFQCGSGYCLPQRWVCDGVDDCEDSSDEKGCTPHT	binds	
SEQ ID NO 787 (designed binder) CLPNEFTCDSGNCVPQALGCDGDNDCEDNSDESPALCAAPAHTCQANEFTCSSGNCLSPALLCDGVDDCGDNSDETYCASPAPTCLPSQFQCGSGYCISQRWVCDGENDCEDSSDEANCAGSVPT	binds	
SEQ ID NO 675 (designed binder) CRSSEFRCDSGHCLPLPWVCDGDDDCEDGSDEAQDCEPRTCVPSQFQCGSGYCISQRWVCDGENDCEDSSDEANCAGSVPT	binds	
SEQ ID NO 749 (designed binder) CGASEFRCDSGHCISPDWRCDGDNDCVDGSDEKSCEQRTCLPSQFQCGSGYCFSQRWVCDGENDCEDGSDEANCAGSVPT	binds	
SEQ ID NO 680 (designed binder) CPADEFPCKNGKCLPLPWVCDGDNDCADNSDETDCTATAPTCRSNQFQCGSGYCISQRWVCDGENDCEDSSDEANCAGSVPT	binds	
SEQ ID NO 645 (designed binder) CGANEFQCGSGYCLPVGWVCDGENDCEDNSDEKGCPPHTCLPNQFQCRNGRCIPLPWLCDGDNDCEDDSDATNCTPRT	binds	
SEQ ID NO 785 (designed binder) CQASEFPCDSGQCIPQPLGCDGDNDCADNSDEESCQPRTCPASQFPCSSGHCVPLNWVCDGVNDCVDGSDEAGCPPRTCLPDQFQCGSGYCISQRWVCDGENDCEDSSDEANCAGSVPT	binds	
CPPDEFQCNSGSCLSQPLLCDGEDDCGDGSDEESCIAAEHT (designed binder) [SEQ ID NO 575]	binds	
SEQ ID NO 745 (designed binder) CPPGEFKCNSGNCVSPTWGCDGVDDCGDDSDEASAICEAPEHTCLPSQFQCGSGYCISQRWVCDGENDCEDSSDEANCAGSVPT	binds	
SEQ ID NO 700 (designed binder) CRSNQFQCGSGYCIPVKWLCDGENDCEDSSDEESCPARTCPPSEFRCKGSGKCVPQHWLCDGVNDCEDDSDEKSCPPPT	binds	
SEQ ID NO 671 (designed binder) CQSSEFTCSSGRCLSAGWLCDGVNDCRDDSDEESCTAPVPTCVPSQFQCGSGYCISQRWVCDGENDCEDSSDEANCAGSVPT	binds	
SEQ ID NO 720 (designed binder) CLASQFRCGNGSCLSQTLLCDGVNDCADNSDEVSCPPPTCLPSQFQCGSGYCISQRWVCDGENDCEDSSDEANCAGSVPT	binds	
CQANEFTCSSGNCLSPALLCDGVDDCGDNSDETNCASPAPT (designed binder) [SEQ ID NO 511]	binds	
SEQ ID NO 754 (designed binder) CPPSQFPCNSGNCVSAAWVCDGVDDCGDDSDESLAICPTSTCLPDQFQCGSGYCLPQRWVCDGVDDCEDSSDEKGCTPHT	binds	
SEQ ID NO 672 (designed binder) CQPGQFQCHDYGRCVSQNWLCDGDPDCLDSSDEANCQPPTCVPSQFQCGSGYCISQRWVCDGENDCEDSSDEANCAGSVPT	binds	
SEQ ID NO 712 (designed binder) CRSSQFRCSSGQCVSLGWVCDGVNDCPDSSDETGCPKRTCLPSQFQCGSGYCISQRWVCDGENDCEDSSDEANCAGSVPT	binds	
SEQ ID NO 768 (designed binder) CASNEFPCSNGNCIPGPLRCDGVNDCEDNSDESPLWPLHTCLPSQFQCGSGYCISQRWVCDGENDCEDSSDEANCAGSVPT	binds	
SEQ ID NO 716 (designed binder) CPPGEFPCSSGHCLSQALRCDGVPDCEDDSDETGCPPPTCLPSQFQCGSGYCISQRWVCDGENDCEDSSDEANCAGSVPT	binds	
SEQ ID NO 689 (designed binder) CRASQFQCGSGYCIPRPWLCDGVNDCEDSSDEANCAGSVPTCQPSQFRCRSGHCISGALGCDGEPDCGDGSDETGCRASAHT	binds	
